# According to IntAct's records for PubMed 35115020:
# B1: Palmitoyltransferase ZDHHC5 (Homo sapiens), Q9C0B5 (parent)
# chain: MPAESGKRFKPSKYVPVSAAAIFLVGATTLFFAFTCPGLSLYVSPAVPIYNAIMFLFVLANFSMATFMDPGIFPRAEEDEDKEDDFRAPLYKTVEIKGIQVRMKWCATCRFYRPPRCSHCSVCDNCVEEFDHHCPWVNNCIGRRNYRYFFLFLLSLTAHIMGVFGFGLLYVLYHIEELSGVRTAVTMAVMCVAGLFFIPVAGLTGFHVVLVARGRTTNEQVTGKFRGGVNPFTNGCCNNVSRVLCSSPAPRYLGRPKKEKTIVIRPPFLRPEVSDGQITVKIMDNGIQGELRRTKSKGSLEITESQSADAEPPPPPKPDLSRYTGLRTHLGLATNEDSSLLAKDSPPTPTMYKYRPGYSSSSTSAAMPHSSSAKLSRGDSLKEPTSIAESSRHPSYRSEPSLEPESFRSPTFGKSFHFDPLSSGSRSSSLKSAQGTGFELGQLQSIRSEGTTSTSYKSLANQTRNGSLSYDSLLTPSDSPDFESVQAGPEPDPPLGYTSPFLSARLAQQREAERHPRLVPTGPTHREPSPVRYDNLSRHIVASLQEREKLLRQSPPLPGREEEPGLGDSGIQSTPGSGHAPRTSSSSDDSKRSPLGKTPLGRPAVPRFGKPDGLRGRGVGSPEPGPTAPYLGRSMSYSSQKAQPGVSETEEVALQPLLTPKDEVQLKTTYSKSNGQPKSLGSASPGPGQPPLSSPTRGGVKKVSGVGGTTYEISV
# Variants of: B1
# Details: with spike_sars2 S
row,Variant,effect of a mutation on the interaction
1,C134S,with no effect
